Data: patent US20110091994A1, “Methods for Screening Compounds for Treating and/or Preventing an Hepatitis C Virus Infection” (priority 2008, published 2011)
Read-outs that look alike come from different tables or passages of the source.

Experiments:
[1] = target: T1, HCV ORFs (Gal4-DB fusions) (Hepatitis C virus genotype 1b, UniProt Q9WMX2); type: binding, HCV genotype 1b, isolate con1; settings: human protein as prey;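 note: yeast two-hybrid screens using HCV genotype 1b proteins fused to Gal4-DB as baits against prey cDNA libraries from human spleen and foetal brain, IMAP1 via transformation and IMAP2 via mating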
T1 construct: expressed in transfected cells; host or cells: Saccharomyces cerevisiae MAV203 (IMAP1) / AH109 (IMAP2)

HCV proteins = target: T2, HCV proteins (Hepatitis C virus genotype 1b, UniProt Q9WMX2); test: Validation by Y2H pairwise matrices; type: binding;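 note: yeast two-hybrid pairwise tests of interactions first found in Y2H screens of HCV bait proteins against human cDNA libraries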
T2 construct: expressed in transfected cells

B1: CEP68 (protein, UniProt Q76N32 1-757, looked up)
Centrosomal protein of 68 kDa: MALGEEKAEAEASEDTKAQSYGRGSCRERELDIPGPMSGEQPPRLEAEGGLISPVWGAEGIPAPTCWIGTDPGGPSRAHQPQASDANREPVAERSEPALSGLPPATMGSGDLLLSGESQVEKTKLSSSEEFPQTLSLPRTTTICSGHDADTEDDPSLADLPQALDLSQQPHSSGLSCLSQWKSVLSPGSAAQPSSCSISASSTGSSLQGHQERAEPRGGSLAKVSSSLEPVVPQEPSSVVGLGPRPQWSPQPVFSGGDASGLGRRRLSFQAEYWACVLPDSLPPSPDRHSPLWNPNKEYEDLLDYTYPLRPGPQLPKHLDSRVPADPVLQDSGVDLDSFSVSPASTLKSPTNVSPNCPPAEATALPFSGPREPSLKQWPSRVPQKQGGMGLASWSQLASTPRAPGSRDARWERREPALRGAKDRLTIGKHLDMGSPQLRTRDRGWPSPRPEREKRTSQSARRPTCTESRWKSEEEVESDDEYLALPARLTQVSSLVSYLGSISTLVTLPTGDIKGQSPLEVSDSDGPASFPSSSSQSQLPPGAALQGSGDPEGQNPCFLRSFVRAHDSAGEGSLGSSQALGVSSGLLKTRPSLPARLDRWPFSDPDVEGQLPRKGGEQGKESLVQCVKTFCCQLEELICWLYNVADVTDHGTAARSNLTSLKSSLQLYRQFKKDIDEHQSLTESVLQKGEILLQCLLENTPVLEDVLGRIAKQSGELESHADRLYDSILASLDMLAGCTLIPDKKPMAAMEHPCEGV
IMAP Y2H IMAP1 (number of IST) ([1]; HCV protein NS5B as bait): 1
Y2H matrices (HCV proteins; interaction with HCV protein NS5B): +

B2: FXYD6 (protein, UniProt Q9H0Q3 19-95, looked up)
FXYD domain-containing ion …: SAAEKEKEMDPFHYDYQTLRIGGLVFAVVLFSVGILLILSRRCKCSFNQKPRAPGDEEAQVENLITANATEPQKAEN
IMAP Y2H IMAP1 (number of IST) ([1]; HCV protein p7 as bait): 1
Y2H matrices (HCV proteins; interaction with HCV protein p7): +

B3: USP19 (protein, UniProt O94966 1-1318, looked up)
Ubiquitin carboxyl-terminal …: MSGGASATGPRRGPPGLEDTTSKKKQKDRANQESKDGDPRKETGSRYVAQAGLEPLASGDPSASASHAAGITGSRHRTRLFFPSSSGSASTPQEEQTKEGACEDPHDLLATPTPELLLDWRQSAEEVIVKLRVGVGPLQLEDVDAAFTDTDCVVRFAGGQQWGGVFYAEIKSSCAKVQTRKGSLLHLTLPKKVPMLTWPSLLVEADEQLCIPPLNSQTCLLGSEENLAPLAGEKAVPPGNDPVSPAMVRSRNPGKDDCAKEEMAVAADAATLVDEPESMVNLAFVKNDSYEKGPDSVVVHVYVKEICRDTSRVLFREQDFTLIFQTRDGNFLRLHPGCGPHTTFRWQVKLRNLIEPEQCTFCFTASRIDICLRKRQSQRWGGLEAPAARVGGAKVAVPTGPTPLDSTPPGGAPHPLTGQEEARAVEKDKSKARSEDTGLDSVATRTPMEHVTPKPETHLASPKPTCMVPPMPHSPVSGDSVEEEEEEEKKVCLPGFTGLVNLGNTCFMNSVIQSLSNTRELRDFFHDRSFEAEINYNNPLGTGGRLAIGFAVLLRALWKGTHHAFQPSKLKAIVASKASQFTGYAQHDAQEFMAFLLDGLHEDLNRIQNKPYTETVDSDGRPDEVVAEEAWQRHKMRNDSFIVDLFQGQYKSKLVCPVCAKVSITFDPFLYLPVPLPQKQKVLPVFYFAREPHSKPIKFLVSVSKENSTASEVLDSLSQSVHVKPENLRLAEVIKNRFHRVFLPSHSLDTVSPSDTLLCFELLSSELAKERVVVLEVQQRPQVPSVPISKCAACQRKQQSEDEKLKRCTRCYRVGYCNQLCQKTHWPDHKGLCRPENIGYPFLVSVPASRLTYARLAQLLEGYARYSVSVFQPPFQPGRMALESQSPGCTTLLSTGSLEAGDSERDPIQPPELQLVTPMAEGDTGLPRVWAAPDRGPVPSTSGISSEMLASGPIEVGSLPAGERVSRPEAAVPGYQHPSEAMNAHTPQFFIYKIDSSNREQRLEDKGDTPLELGDDCSLALVWRNNERLQEFVLVASKELECAEDPGSAGEAARAGHFTLDQCLNLFTRPEVLAPEEAWYCPQCKQHREASKQLLLWRLPNVLIVQLKRFSFRSFIWRDKINDLVEFPVRNLDLSKFCIGQKEEQLPSYDLYAVINHYGGMIGGHYTACARLPNDRSSQRSDVGWRLFDDSTVTTVDESQVVTRYAYVLFYRRRNSPVERPPRAGHSEHHPDLGPAAEAAASQASRIWQELEAEEEPVPEGSGPLGPWGPQDWVGPLPRGPTTPDEGCLRYFVLGTVAALVALVLNVFYPLVSQSRWR
IMAP Y2H IMAP1 (number of IST) ([1]; HCV protein NS5A as bait): 3
Y2H matrices (HCV proteins; interaction with HCV protein NS5A): +
